Measured values from the supplement of paper PMC10065799, “High-throughput profiling of sequence recognition by tyrosine kinases and SH2 domains using bacterial peptide display” (eLife, 2023).

The sequences below were run on AncSZ (assay: phosphorylation enrichment, bacterial display (enrichment ratio); higher = better substrate or ligand; peptides without Tyr show the background).
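Note: 11-residue human phosphosite peptides and single-mutation variants displayed on the E. coli surface, counted by deep sequencing, each peptide's frequency after selection divided by its frequency in the unselected input library; frequency after pTyr selection over input frequency; kinase dosed for 20-30% of maximal phosphorylation in three min.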

| Sequence | phosphorylation enrichment |
| --- | --- |
| EIIPFYGMSSY [FNDC3B_Y175_T179S] | 0.877 |
| LLLLFYVVRYC [MPZ_Y177] | 0.722 |
| NGEDPYAGSTD [XRCC1_Y515] | 1.21 |
| VTSLKYSTPPY [BRIP1_Y916_S919P] | 0.625 |
| CPFNLYAAQLS [HGD_Y40_E42A_YF] | 1.2 |
| HEEDNYIEMIP [NWD2_Y566_L569M] | 3.02 |
| MFQVQYNSSVD [LRFN1_Y458_YF] | 0.859 |
| PEADKYRLTFA [FGG_Y300_YF] | 1.05 |
| DEDEEYEYMNR [ERBB3_Y1197] | 1.38 |
| YLEKYYKFGCR [NNMT_Y25_S29C] | 1.18 |
| SPRDTYSDRSG [CTPS1_Y567] | 0.494 |
| LSSEMCVKSFT [F5_Y2149_Y2149C_YF] | 1.36 |
| LNPDGYEKAYE [CPXM2_Y427] | 1.12 |
| AHLLQYNHRVK [LGALS3_Y221] | 0.592 |
| QDEPTYARSSK [PEAK1_Y616_H611Q] | 0.787 |
| LFMGDYVDRGF [PPP2CA_Y86_YF] | 0.95 |

Each sequence was assayed against EPHB1 (UniProt P54762) in the same assay as above.
Chain of EPHB1 (P54762 whole entry, looked up): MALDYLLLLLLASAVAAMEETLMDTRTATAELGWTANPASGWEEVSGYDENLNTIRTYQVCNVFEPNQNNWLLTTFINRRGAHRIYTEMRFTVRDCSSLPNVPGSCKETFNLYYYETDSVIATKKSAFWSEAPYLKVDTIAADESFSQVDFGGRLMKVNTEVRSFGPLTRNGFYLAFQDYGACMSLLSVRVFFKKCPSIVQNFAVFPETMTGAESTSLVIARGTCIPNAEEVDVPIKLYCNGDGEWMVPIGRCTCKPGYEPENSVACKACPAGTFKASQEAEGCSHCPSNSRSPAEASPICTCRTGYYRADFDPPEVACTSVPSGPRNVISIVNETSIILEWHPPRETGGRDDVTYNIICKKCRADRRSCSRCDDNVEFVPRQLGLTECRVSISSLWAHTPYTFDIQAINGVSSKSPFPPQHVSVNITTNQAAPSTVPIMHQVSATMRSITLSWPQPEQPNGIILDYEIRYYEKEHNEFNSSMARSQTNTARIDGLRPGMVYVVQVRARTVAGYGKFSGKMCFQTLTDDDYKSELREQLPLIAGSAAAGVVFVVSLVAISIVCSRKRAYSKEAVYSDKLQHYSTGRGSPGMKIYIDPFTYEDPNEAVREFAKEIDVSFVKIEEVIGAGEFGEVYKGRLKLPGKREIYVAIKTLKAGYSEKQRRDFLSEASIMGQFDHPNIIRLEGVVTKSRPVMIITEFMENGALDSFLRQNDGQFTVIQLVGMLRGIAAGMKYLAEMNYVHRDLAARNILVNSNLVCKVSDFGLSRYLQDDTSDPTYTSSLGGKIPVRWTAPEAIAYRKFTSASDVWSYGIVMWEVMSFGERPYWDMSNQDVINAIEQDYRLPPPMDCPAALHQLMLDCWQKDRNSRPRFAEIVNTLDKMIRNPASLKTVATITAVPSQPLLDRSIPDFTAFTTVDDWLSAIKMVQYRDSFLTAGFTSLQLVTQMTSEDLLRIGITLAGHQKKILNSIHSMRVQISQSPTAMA

| Sequence | phosphorylation enrichment |
| --- | --- |
| EIIPFYGMSSY [FNDC3B_Y175_T179S] | 0.6 |
| LLLLFYVVRYC [MPZ_Y177] | 0.359 |
| NGEDPYAGSTD [XRCC1_Y515] | 0.431 |
| VTSLKYSTPPY [BRIP1_Y916_S919P] | 0.355 |
| CPFNLYAAQLS [HGD_Y40_E42A_YF] | 1.79 |
| HEEDNYIEMIP [NWD2_Y566_L569M] | 1.68 |
| MFQVQYNSSVD [LRFN1_Y458_YF] | 0.486 |
| PEADKYRLTFA [FGG_Y300_YF] | 0.887 |
| DEDEEYEYMNR [ERBB3_Y1197] | 0.587 |
| YLEKYYKFGCR [NNMT_Y25_S29C] | 0.775 |
| SPRDTYSDRSG [CTPS1_Y567] | 0.298 |
| LSSEMCVKSFT [F5_Y2149_Y2149C_YF] | 0.472 |
| LNPDGYEKAYE [CPXM2_Y427] | 0.696 |
| AHLLQYNHRVK [LGALS3_Y221] | 0.461 |
| QDEPTYARSSK [PEAK1_Y616_H611Q] | 0.389 |
| LFMGDYVDRGF [PPP2CA_Y86_YF] | 0.961 |

Each sequence was assayed on Fer (mouse) in the same assay as above.

| Sequence | phosphorylation enrichment |
| --- | --- |
| EIIPFYGMSSY [FNDC3B_Y175_T179S] | 0.933 |
| LLLLFYVVRYC [MPZ_Y177] | 0.468 |
| NGEDPYAGSTD [XRCC1_Y515] | 0.431 |
| VTSLKYSTPPY [BRIP1_Y916_S919P] | 0.352 |
| CPFNLYAAQLS [HGD_Y40_E42A_YF] | 0.76 |
| HEEDNYIEMIP [NWD2_Y566_L569M] | 0.938 |
| MFQVQYNSSVD [LRFN1_Y458_YF] | 0.514 |
| PEADKYRLTFA [FGG_Y300_YF] | 0.546 |
| DEDEEYEYMNR [ERBB3_Y1197] | 0.556 |
| YLEKYYKFGCR [NNMT_Y25_S29C] | 0.55 |
| SPRDTYSDRSG [CTPS1_Y567] | 0.369 |
| LSSEMCVKSFT [F5_Y2149_Y2149C_YF] | 0.815 |
| LNPDGYEKAYE [CPXM2_Y427] | 0.365 |
| AHLLQYNHRVK [LGALS3_Y221] | 0.371 |
| QDEPTYARSSK [PEAK1_Y616_H611Q] | 0.466 |
| LFMGDYVDRGF [PPP2CA_Y86_YF] | 0.546 |

The sequences below were run against EPHB2 (UniProt P29323) in the same assay as above.
Chain of EPHB2 (P29323 whole entry, looked up): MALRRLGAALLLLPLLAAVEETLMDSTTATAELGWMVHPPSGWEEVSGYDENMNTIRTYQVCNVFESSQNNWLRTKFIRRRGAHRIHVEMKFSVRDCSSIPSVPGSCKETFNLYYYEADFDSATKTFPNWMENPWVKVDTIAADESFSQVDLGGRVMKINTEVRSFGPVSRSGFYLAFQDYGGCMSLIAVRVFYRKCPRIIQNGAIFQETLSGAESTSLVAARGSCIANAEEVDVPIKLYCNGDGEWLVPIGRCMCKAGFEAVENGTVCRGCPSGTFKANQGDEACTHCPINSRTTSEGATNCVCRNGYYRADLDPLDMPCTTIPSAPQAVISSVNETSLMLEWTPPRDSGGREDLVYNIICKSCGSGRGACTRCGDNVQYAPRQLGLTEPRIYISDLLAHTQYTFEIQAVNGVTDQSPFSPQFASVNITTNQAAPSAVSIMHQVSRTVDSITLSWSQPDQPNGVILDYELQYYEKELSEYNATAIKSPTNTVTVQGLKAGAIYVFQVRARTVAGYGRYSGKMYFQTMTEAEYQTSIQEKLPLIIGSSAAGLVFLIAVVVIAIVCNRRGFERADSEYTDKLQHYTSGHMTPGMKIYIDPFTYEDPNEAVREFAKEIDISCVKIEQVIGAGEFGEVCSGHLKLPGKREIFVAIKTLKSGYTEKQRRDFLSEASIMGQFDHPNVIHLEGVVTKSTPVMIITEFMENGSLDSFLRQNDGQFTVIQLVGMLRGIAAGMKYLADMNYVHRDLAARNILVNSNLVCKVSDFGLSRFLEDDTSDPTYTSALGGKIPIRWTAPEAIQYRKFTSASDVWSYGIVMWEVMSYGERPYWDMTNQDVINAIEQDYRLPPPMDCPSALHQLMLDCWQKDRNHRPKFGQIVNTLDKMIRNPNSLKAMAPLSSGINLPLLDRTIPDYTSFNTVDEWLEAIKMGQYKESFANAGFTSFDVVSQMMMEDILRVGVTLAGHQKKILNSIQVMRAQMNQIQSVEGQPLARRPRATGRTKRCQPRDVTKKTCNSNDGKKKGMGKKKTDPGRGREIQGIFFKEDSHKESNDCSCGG

| Sequence | phosphorylation enrichment |
| --- | --- |
| EIIPFYGMSSY [FNDC3B_Y175_T179S] | 0.77 |
| LLLLFYVVRYC [MPZ_Y177] | 0.345 |
| NGEDPYAGSTD [XRCC1_Y515] | 0.508 |
| VTSLKYSTPPY [BRIP1_Y916_S919P] | 0.344 |
| CPFNLYAAQLS [HGD_Y40_E42A_YF] | 1.24 |
| HEEDNYIEMIP [NWD2_Y566_L569M] | 1.19 |
| MFQVQYNSSVD [LRFN1_Y458_YF] | 0.432 |
| PEADKYRLTFA [FGG_Y300_YF] | 0.697 |
| DEDEEYEYMNR [ERBB3_Y1197] | 0.712 |
| YLEKYYKFGCR [NNMT_Y25_S29C] | 0.588 |
| SPRDTYSDRSG [CTPS1_Y567] | 0.473 |
| LSSEMCVKSFT [F5_Y2149_Y2149C_YF] | 1.34 |
| LNPDGYEKAYE [CPXM2_Y427] | 0.816 |
| AHLLQYNHRVK [LGALS3_Y221] | 0.493 |
| QDEPTYARSSK [PEAK1_Y616_H611Q] | 0.498 |
| LFMGDYVDRGF [PPP2CA_Y86_YF] | 1.19 |
